From US20100260668A1 (published 2010) come the findings set out here.

Experiment [1] addresses T1, PlGF (UniProt P49763-2 21-149, limits assumed).
T1 construct: bought antigen coated on the ELISA plate; also called Placental GF
T1 sequence (looked up): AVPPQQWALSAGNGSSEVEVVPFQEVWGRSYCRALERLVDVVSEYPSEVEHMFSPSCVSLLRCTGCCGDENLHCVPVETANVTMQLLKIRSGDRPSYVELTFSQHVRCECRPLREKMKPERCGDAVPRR
The experiment in a line: direct bind ELISA, N-terminal VD.

Experiment [2] addresses T2, VEGF (UniProt P15692 27-191, limits assumed).
T2 construct: bought antigen coated on the ELISA plate
The experiment can be described thus: direct bind ELISA, N-terminal VD. (In an ELISA, binding on a coated surface is turned into a signal by an enzyme label.)

In experiment [3] the target is T1, PlGF. The experiment can be described thus: direct bind ELISA, C-terminal VD.
Description: Enzyme Linked Immunosorbent Assays to screen for antibodies that bind a desired target antigen were performed as follows. […] Plates were washed four times with PBS containing 0.02% Tween 20. Plates were blocked by the addition of 300 μL/well blocking solution (non-fat dry milk powder, various retail suppliers, diluted to 2% in PBS) for ½ hour at room temperature. Plates were washed four times after blocking with PBS containing 0.02% Tween 20.
Plates were washed 4 times with PBS containing 0.02% Tween 20.
Experiment [4] concerns the target T3, HGF (UniProt P14210 32-728).
T3 construct: Bought reagent
The experiment can be described thus: Biacore SPR.
Description: The BIACORE assay (Biacore, Inc, Piscataway, N.J.) determines the affinity of antibodies or DVD-Ig with kinetic measurements of on-rate and off-rate constants. Binding of antibodies or DVD-Ig to a target antigen (for example, a purified recombinant target antigen) is determined by surface plasmon resonance-based measurements with a Biacore® 1000 or 3000 instrument (Biacore® AB, Uppsala, Sweden) using running HBS-EP (10 mM HEPES [pH 7.4], 150 mM NaCl, 3 mM EDTA, and 0.005% surfactant P20) at 25° C. […] For example, approximately 5000 RU of goat anti-mouse IgG, (Fcγ), fragment specific polyclonal antibody (Pierce Biotechnology Inc, Rockford, Ill.) diluted in 10 mM sodium acetate (pH 4.5) is directly immobilized across a CM5 research grade biosensor chip using a standard amine coupling kit according to manufacturer's instructions and procedures at 25 μg/ml. Unreacted moieties on the biosensor surface are blocked with ethanolamine. Modified carboxymethyl dextran surface in flowcell 2 and 4 is used as a reaction surface. Unmodified carboxymethyl dextran without goat anti-mouse IgG in flow cell 1 and 3 is used as the reference surface. For kinetic analysis, rate equations derived from the 1:1 Langmuir binding model are fitted simultaneously to association and dissociation phases of all eight injections (using global fit analysis) with the use of Biaevaluation 4.0.1 software. Purified antibodies or DVD-Ig are diluted in HEPES-buffered saline for capture across goat anti-mouse IgG specific reaction surfaces. Antibodies or DVD-Ig to be captured as a ligand (25 μg/ml) are injected over reaction matrices at a flow rate of 5 μl/min. The association and dissociation rate constants, kₒₙ (M⁻¹s⁻¹) and koff (s⁻¹) are determined under a continuous flow rate of 25 μl/min. Rate constants are derived by making kinetic binding measurements at different antigen concentrations ranging from 10-200 nM. The equilibrium dissociation constant (M) of the reaction between antibodies or DVD-Igs and the target antigen is then calculated from the kinetic rate constants by the following formula: KD=koff/kₒₙ. Binding is recorded as a function of time and kinetic rate constants are calculated.

What is called EC50 is the concentration needed to bring the measured effect to its halfway point. The low end stands for greater potency, the high end for weaker potency. What is called Kd is the free concentration of one partner at which half of the binding sites on the other are occupied at equilibrium, for simple one-to-one binding. High values mean a looser complex, low ones a tighter complex. By koff is commonly meant the first-order rate constant of dissociation. In general, kon refers to the second-order rate constant of association.

T3 sequence (P14210 32-728 limits assumed): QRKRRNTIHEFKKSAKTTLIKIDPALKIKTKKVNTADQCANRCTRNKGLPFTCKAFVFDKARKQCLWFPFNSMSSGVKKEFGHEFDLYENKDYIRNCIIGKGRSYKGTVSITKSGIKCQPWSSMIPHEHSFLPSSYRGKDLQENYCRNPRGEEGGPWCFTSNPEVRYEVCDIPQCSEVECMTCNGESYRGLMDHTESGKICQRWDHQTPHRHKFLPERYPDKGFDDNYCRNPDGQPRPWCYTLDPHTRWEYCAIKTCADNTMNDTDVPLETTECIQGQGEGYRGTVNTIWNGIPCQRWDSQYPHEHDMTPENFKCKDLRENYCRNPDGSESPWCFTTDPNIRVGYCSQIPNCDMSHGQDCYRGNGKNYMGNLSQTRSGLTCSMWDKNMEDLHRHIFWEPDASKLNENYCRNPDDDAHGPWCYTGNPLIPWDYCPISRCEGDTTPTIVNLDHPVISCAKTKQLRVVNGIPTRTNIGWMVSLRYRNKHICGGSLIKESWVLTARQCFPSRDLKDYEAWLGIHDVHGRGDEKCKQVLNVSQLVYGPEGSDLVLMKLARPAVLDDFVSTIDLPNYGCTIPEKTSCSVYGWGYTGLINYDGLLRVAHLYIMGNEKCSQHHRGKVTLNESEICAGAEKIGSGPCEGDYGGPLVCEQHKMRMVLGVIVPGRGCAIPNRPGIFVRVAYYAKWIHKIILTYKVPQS
T2 sequence (P15692 other isoform, or with tags, fused parts or gaps limits assumed): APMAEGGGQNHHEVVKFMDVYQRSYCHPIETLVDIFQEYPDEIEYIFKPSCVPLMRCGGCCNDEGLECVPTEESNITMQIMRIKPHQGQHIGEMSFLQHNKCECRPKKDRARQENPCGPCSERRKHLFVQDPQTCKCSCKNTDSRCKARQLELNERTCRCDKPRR

B1: DVD575 (bispecific antibody, human IgG1, kappa)
heavy: not shown
light: DIVLTQSPDSLAVSLGERVTMNCKSSQSLLNSGMRKSFLAWYQQKPGQSPKLLIYWASTRESGVPDRFTGSGSGTDFTLTISSVQAEDVAVYYCKQSYHLFTFGSGTKLEIKRTVAAPDIQMTQSPSSLSASVGDRVTITCRASQVIRRSLAWYQQKPGKAPKLLIYAASNLASGVPSRFSGSGSGTDFTLTISSLQPEDFATYYCQQSNTSPLTFGQGTKVEIKRTVAAPSVFIFPPSDEQLKSGTASVVCLLNNFYPREAKVQWKVDNALQSGNSQESVTEQDSKDSTYSLSSTLTLSKADYEKHKVYACEVTHQGLSSPVTKSFNRGEC
notes: outer AB047 (PlGF), inner AB071 (VEGF); HC linker short, LC linker short; also called DVD-Ig DVD575
B1 had a half-maximal effective concentration (EC50) in experiment [1] of 0.14 nM. That is a sub-nanomolar value.

B2: DVD544 (bispecific antibody, human IgG1, kappa)
heavy: not shown
light: DIQMTQSPSSLSASVGDRVTITCRASQDVSTAVAWYQQKPGKAPKLLIYSASFLYSGVPSRFSGSGSGTDFTLTISSLQPEDFATYYCQQSYTTPPTFGQGTKVEIKRTVAAPAIQMTQSSSSFSVSLGDRVTITCKASEDIYNRFAWYQQKPGNAPRLLISGAASLEAGVPSRFSGSGSGQDYTLSITSLQTEDVATYYCQQYWSTPWTFGGGTKLEIKRTVAAPSVFIFPPSDEQLKSGTASVVCLLNNFYPREAKVQWKVDNALQSGNSQESVTEQDSKDSTYSLSSTLTLSKADYEKHKVYACEVTHQGLSSPVTKSFNRGEC
notes: HC linker short, LC linker short; also called DVD-Ig DVD544
Take B2: the results for the EC50 in experiment [2] and in experiment [3] were 2.35 nM and 13.8 nM, respectively.

B3: DVD560 (bispecific antibody, human IgG1, kappa)
heavy: not shown
light: DIQMTQSPSSLSASVGDRVTITCRASQDVSTAVAWYQQKPGKAPKLLIYSASFLYSGVPSRFSGSGSGTDFTLTISSLQPEDFATYYCQQSYTTPPTFGQGTKVEIKRTVAAPAIQMTQSSSSFSVSLGDRVTITCKASEDIYNRFAWYQQKPGNAPRLLISGAASLEAGVPSRFSGSGSGQDYTLSITSLQTEDVATYYCQQYWSTPWTFGGGTKLEIKRTVAAPSVFIFPPSDEQLKSGTASVVCLLNNFYPREAKVQWKVDNALQSGNSQESVTEQDSKDSTYSLSSTLTLSKADYEKHKVYACEVTHQGLSSPVTKSFNRGEC
notes: HC linker long, LC linker short; also called DVD-Ig DVD560
Consider B3, for which the EC50 amounted to 3.12 nM in experiment [2] and 2.53 nM in experiment [3].

B4: AB012 (antibody, human IgG1, kappa, V domains shown)
VH: QVQLVESGGGLVKPGGSLRLSCAASGFTFSDYYMSWIRQAPGKGLEWVSYISSSGSTIYYADSVKGRFTISRDNAKNSLYLQMNSLRAEDTAVYYCARDEYNSGWYVLFDYWGQGTLVTVSS
VL: DIQMTQSPSSVSASVGDRVTITCRASQGISSWLAWYQQKPGKAPNLLIYEASSLQSGVPSRFGGSGSGTDFTLTISSLQPEDFATYYCQQANGFPWTFGQGTKVEIKR
As for B4, in experiment [4], the Kd is less than 0.0284 nM, the koff amounted to 0.000284 s⁻¹ and the kon was more than 1e+07 M⁻¹ s⁻¹.

B5: DVD554 (bispecific antibody, human IgG1, kappa)
heavy: not shown
light: DIQMTQSPSSLSASVGDRVTITCRASQVIRRSLAWYQQKPGKAPKLLIYAASNLASGVPSRFSGSGSGTDFTLTISSLQPEDFATYYCQQSNTSPLTFGQGTKVEIKRTVAAPSVFIFPPAIQMTQSSSSFSVSLGDRVTITCKASEDIYNRFAWYQQKPGNAPRLLISGAASLEAGVPSRFSGSGSGQDYTLSITSLQTEDVATYYCQQYWSTPWTFGGGTKLEIKRTVAAPSVFIFPPSDEQLKSGTASVVCLLNNFYPREAKVQWKVDNALQSGNSQESVTEQDSKDSTYSLSSTLTLSKADYEKHKVYACEVTHQGLSSPVTKSFNRGEC
notes: outer AB071 (VEGF), inner AB074 (PlGF); HC linker long, LC linker long; also called DVD-Ig DVD554
Consider B5, for which the figures for the EC50 in experiment [2] and in experiment [3] were 15.2 nM and 0.45 nM, respectively.

B6: DVD570 (bispecific antibody, human IgG1, kappa)
heavy: not shown
light: DIQMTQSPSSLSASVGDRVTITCRASQVIRRSLAWYQQKPGKAPKLLIYAASNLASGVPSRFSGSGSGTDFTLTISSLQPEDFATYYCQQSNTSPLTFGQGTKVEIKRTVAAPSVFIFPPAIQMTQSSSSFSVSLGDRVTITCKASEDIYNRFAWYQQKPGNAPRLLISGAASLEAGVPSRFSGSGSGQDYTLSITSLQTEDVATYYCQQYWSTPWTFGGGTKLEIKRTVAAPSVFIFPPSDEQLKSGTASVVCLLNNFYPREAKVQWKVDNALQSGNSQESVTEQDSKDSTYSLSSTLTLSKADYEKHKVYACEVTHQGLSSPVTKSFNRGEC
notes: outer AB071 (VEGF), inner AB074 (PlGF); HC linker short, LC linker long; also called DVD-Ig DVD570
For B6, the EC50 in experiment [2] was 17.6 nM; in experiment [3], 1.44 nM.

B7: DVD566 (bispecific antibody, human IgG1, kappa)
heavy: not shown
light: DIQMTQSPSSLSASVGDRVTITCSASQDISNYLNWYQQKPGKAPKVLIYFTSSLHSGVPSRFSGSGSGTDFTLTISSLQPEDFATYYCQQYSTVPWTFGQGTKVEIKRTVAAPSVFIFPPAIQMTQSSSSFSVSLGDRVTITCKASEDIYNRFAWYQQKPGNAPRLLISGAASLEAGVPSRFSGSGSGQDYTLSITSLQTEDVATYYCQQYWSTPWTFGGGTKLEIKRTVAAPSVFIFPPSDEQLKSGTASVVCLLNNFYPREAKVQWKVDNALQSGNSQESVTEQDSKDSTYSLSSTLTLSKADYEKHKVYACEVTHQGLSSPVTKSFNRGEC
notes: HC linker short, LC linker long; also called DVD-Ig DVD566
As to B7, the concentration for a half-maximal effect (EC50) in experiment [2] stood at 1.49 nM; in experiment [3], 1.42 nM.

B8: DVD552 (bispecific antibody, human IgG1, kappa)
heavy: not shown
light: DIQMTQSPSSLSASVGDRVTITCRASQDVSTAVAWYQQKPGKAPKLLIYSASFLYSGVPSRFSGSGSGTDFTLTISSLQPEDFATYYCQQSYTTPPTFGQGTKVEIKRTVAAPSVFIFPPAIQMTQSSSSFSVSLGDRVTITCKASEDIYNRFAWYQQKPGNAPRLLISGAASLEAGVPSRFSGSGSGQDYTLSITSLQTEDVATYYCQQYWSTPWTFGGGTKLEIKRTVAAPSVFIFPPSDEQLKSGTASVVCLLNNFYPREAKVQWKVDNALQSGNSQESVTEQDSKDSTYSLSSTLTLSKADYEKHKVYACEVTHQGLSSPVTKSFNRGEC
notes: HC linker long, LC linker long; also called DVD-Ig DVD552
As for B8, the values for the EC50 in experiment [2] and in experiment [3] were 314 nM and 8.54 nM, respectively.

B9: DVD568 (bispecific antibody, human IgG1, kappa)
heavy: not shown
light: DIQMTQSPSSLSASVGDRVTITCRASQDVSTAVAWYQQKPGKAPKLLIYSASFLYSGVPSRFSGSGSGTDFTLTISSLQPEDFATYYCQQSYTTPPTFGQGTKVEIKRTVAAPSVFIFPPAIQMTQSSSSFSVSLGDRVTITCKASEDIYNRFAWYQQKPGNAPRLLISGAASLEAGVPSRFSGSGSGQDYTLSITSLQTEDVATYYCQQYWSTPWTFGGGTKLEIKRTVAAPSVFIFPPSDEQLKSGTASVVCLLNNFYPREAKVQWKVDNALQSGNSQESVTEQDSKDSTYSLSSTLTLSKADYEKHKVYACEVTHQGLSSPVTKSFNRGEC
notes: HC linker short, LC linker long; also called DVD-Ig DVD568
Consider B9, for which the EC50 came to 3.14 nM in experiment [2] and 2.84 nM in experiment [3].

B10: DVD573 (bispecific antibody, human IgG1, kappa)
heavy: not shown
light: DIVLTQSPDSLAVSLGERVTMNCKSSQSLLNSGMRKSFLAWYQQKPGQSPKLLIYWASTRESGVPDRFTGSGSGTDFTLTISSVQAEDVAVYYCKQSYHLFTFGSGTKLEIKRTVAAPDIQMTQSPSSLSASVGDRVTITCRASQDVSTAVAWYQQKPGKAPKLLIYSASFLYSGVPSRFSGSGSGTDFTLTISSLQPEDFATYYCQQSYTTPPTFGQGTKVEIKRTVAAPSVFIFPPSDEQLKSGTASVVCLLNNFYPREAKVQWKVDNALQSGNSQESVTEQDSKDSTYSLSSTLTLSKADYEKHKVYACEVTHQGLSSPVTKSFNRGEC
notes: HC linker short, LC linker short; also called DVD-Ig DVD573
In experiment [1], B10 had an EC50 of 0.14 nM.

B11: DVD542 (bispecific antibody, human IgG1, kappa)
heavy: not shown
light: DIQMTQSPSSLSASVGDRVTITCSASQDISNYLNWYQQKPGKAPKVLIYFTSSLHSGVPSRFSGSGSGTDFTLTISSLQPEDFATYYCQQYSTVPWTFGQGTKVEIKRTVAAPAIQMTQSSSSFSVSLGDRVTITCKASEDIYNRFAWYQQKPGNAPRLLISGAASLEAGVPSRFSGSGSGQDYTLSITSLQTEDVATYYCQQYWSTPWTFGGGTKLEIKRTVAAPSVFIFPPSDEQLKSGTASVVCLLNNFYPREAKVQWKVDNALQSGNSQESVTEQDSKDSTYSLSSTLTLSKADYEKHKVYACEVTHQGLSSPVTKSFNRGEC
notes: HC linker short, LC linker short; also called DVD-Ig DVD542
Take B11: the EC50 in experiment [2] came to 0.8 nM; in experiment [3], 13 nM.

B12: DVD558 (bispecific antibody, human IgG1, kappa)
heavy: not shown
light: DIQMTQSPSSLSASVGDRVTITCSASQDISNYLNWYQQKPGKAPKVLIYFTSSLHSGVPSRFSGSGSGTDFTLTISSLQPEDFATYYCQQYSTVPWTFGQGTKVEIKRTVAAPAIQMTQSSSSFSVSLGDRVTITCKASEDIYNRFAWYQQKPGNAPRLLISGAASLEAGVPSRFSGSGSGQDYTLSITSLQTEDVATYYCQQYWSTPWTFGGGTKLEIKRTVAAPSVFIFPPSDEQLKSGTASVVCLLNNFYPREAKVQWKVDNALQSGNSQESVTEQDSKDSTYSLSSTLTLSKADYEKHKVYACEVTHQGLSSPVTKSFNRGEC
notes: HC linker long, LC linker short; also called DVD-Ig DVD558
Take B12: the EC50 was determined as 1.96 nM in experiment [2] and 3.37 nM in experiment [3].

B13: DVD546 (bispecific antibody, human IgG1, kappa)
heavy: not shown
light: DIQMTQSPSSLSASVGDRVTITCRASQVIRRSLAWYQQKPGKAPKLLIYAASNLASGVPSRFSGSGSGTDFTLTISSLQPEDFATYYCQQSNTSPLTFGQGTKVEIKRTVAAPAIQMTQSSSSFSVSLGDRVTITCKASEDIYNRFAWYQQKPGNAPRLLISGAASLEAGVPSRFSGSGSGQDYTLSITSLQTEDVATYYCQQYWSTPWTFGGGTKLEIKRTVAAPSVFIFPPSDEQLKSGTASVVCLLNNFYPREAKVQWKVDNALQSGNSQESVTEQDSKDSTYSLSSTLTLSKADYEKHKVYACEVTHQGLSSPVTKSFNRGEC
notes: outer AB071 (VEGF), inner AB074 (PlGF); HC linker short, LC linker short; also called DVD-Ig DVD546
B13: the EC50 is 25.8 nM in experiment [2] and 7.03 nM in experiment [3].

B14: DVD562 (bispecific antibody, human IgG1, kappa)
heavy: not shown
light: DIQMTQSPSSLSASVGDRVTITCRASQVIRRSLAWYQQKPGKAPKLLIYAASNLASGVPSRFSGSGSGTDFTLTISSLQPEDFATYYCQQSNTSPLTFGQGTKVEIKRTVAAPAIQMTQSSSSFSVSLGDRVTITCKASEDIYNRFAWYQQKPGNAPRLLISGAASLEAGVPSRFSGSGSGQDYTLSITSLQTEDVATYYCQQYWSTPWTFGGGTKLEIKRTVAAPSVFIFPPSDEQLKSGTASVVCLLNNFYPREAKVQWKVDNALQSGNSQESVTEQDSKDSTYSLSSTLTLSKADYEKHKVYACEVTHQGLSSPVTKSFNRGEC
notes: outer AB071 (VEGF), inner AB074 (PlGF); HC linker long, LC linker short; also called DVD-Ig DVD562
As for B14, the EC50 came to 17.7 nM in experiment [2] and 1.12 nM in experiment [3].
